The target of one assay is T1, hIL-2Rβγ (human, UniProt P14784 27-239; P31785 23-254).
T1 construct: Soluble beta/gamma heterodimer used as SPR analyte
T1 sequence (looked up) 1: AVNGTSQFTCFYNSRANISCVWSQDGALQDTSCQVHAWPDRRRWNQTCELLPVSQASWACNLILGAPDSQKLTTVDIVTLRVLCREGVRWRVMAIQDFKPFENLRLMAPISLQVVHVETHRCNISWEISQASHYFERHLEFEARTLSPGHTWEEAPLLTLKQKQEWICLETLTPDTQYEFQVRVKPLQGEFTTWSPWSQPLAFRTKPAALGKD
T1 sequence (looked up) 2: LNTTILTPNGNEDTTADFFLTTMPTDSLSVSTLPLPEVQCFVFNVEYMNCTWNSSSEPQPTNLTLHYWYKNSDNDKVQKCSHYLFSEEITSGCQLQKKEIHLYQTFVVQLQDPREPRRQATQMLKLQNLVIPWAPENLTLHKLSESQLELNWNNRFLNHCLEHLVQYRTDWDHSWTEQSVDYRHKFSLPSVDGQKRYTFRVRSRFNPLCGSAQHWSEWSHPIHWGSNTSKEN
The assay can be described thus: SPR, Biacore T200; biotinylated CD73 on SA chip, binder bound to CD73, hIL-2Rβγ as analyte, single cycle kinetics. The procedure:
(§1) To quantitatively analyze the binding affinities to CD73 and IL-2 receptors of […] and GI-108B1, in which the anti-CD73 antibody that specifically binds to CD73 was linked to the IL-2 variant, and Aldesleukin (trade name: PROLEUKIN®, Novartis), the binding affinities were measured using SPR (surface plasmon resonance). Using a BIACORE™ T200 instrument (Cytiva), the binding affinities of GI-108A1 (AHF10240), GI-108A1 (AHP04167) and GI-108B1 to hCD73, cyCD73, mCD73, hIL-2Rα, hIL-2Rβ, and hIL-2Rβγ were analyzed. Oleclumab (Astrazeneca), produced on order from Ybiologics, Inc., was used as a control.
(§2) To analyze the binding affinity to hIL-2Ra, hIL-2Ra was […] immobilized on Sensor Chip CM5 using a His capture kit (Cytiva, USA). Each of GI-108A1 (AHF10240), GI-108A1 (AHP04167), GI-108B1 and PROLEUKIN®, diluted in HBS-EP+ buffer, was then applied for 1 minute, followed by analysis of association and dissociation. In addition, the binding affinities to hIL-2RB and hIL-2Rβγ were measured by a three-step analysis method including treating Sensor Chip SA (Cytiva, USA) with biotinylated CD73, and then binding each of GI-108A1 (AHF10240), GI-108A1 (AHP04167), GI-108B1 and PROLEUKIN® to CD73, followed by treatment with each of hIL-2RB and hIL-2Rβγ diluted in HBS-P+ buffer (Cytiva, USA). For hIL-2RB, association was performed for 1 minute and dissociation for 1 minute, and for hIL-2Rβγ, association was performed for 5 minutes and dissociation for 2 hours at each concentration, in a single cycle kinetics analysis. Each sensorgram was normalized and subtracted compared to a blank cell to calculate affinity.
(Surface plasmon resonance follows binding to a sensor surface in real time, without labels.)

For another assay, the target named is T2, mCD73 (UniProt Q61503 29-551, limits assumed).
T2 construct: Species told only by the prefix 'm'
T2 sequence (looked up): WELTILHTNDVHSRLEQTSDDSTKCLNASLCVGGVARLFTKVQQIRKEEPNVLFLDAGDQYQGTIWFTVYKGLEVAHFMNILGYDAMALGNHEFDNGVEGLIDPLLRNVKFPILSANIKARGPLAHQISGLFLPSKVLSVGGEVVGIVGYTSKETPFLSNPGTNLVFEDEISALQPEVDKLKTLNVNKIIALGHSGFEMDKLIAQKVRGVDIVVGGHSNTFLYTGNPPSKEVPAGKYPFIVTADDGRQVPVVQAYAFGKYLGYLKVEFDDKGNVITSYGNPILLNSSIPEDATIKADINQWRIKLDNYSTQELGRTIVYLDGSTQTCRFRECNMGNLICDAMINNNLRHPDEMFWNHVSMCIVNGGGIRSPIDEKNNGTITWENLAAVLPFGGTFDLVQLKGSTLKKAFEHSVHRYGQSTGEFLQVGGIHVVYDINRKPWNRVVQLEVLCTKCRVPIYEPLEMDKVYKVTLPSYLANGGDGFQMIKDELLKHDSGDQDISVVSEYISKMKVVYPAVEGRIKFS
The assay can be described thus: SPR, Biacore T200; binder captured on CM5 chip by human antibody capture kit, CD73 as analyte. The procedure: as §1
(§3) Specifically, to analyze the binding affinities to hCD73, cyCD73, and mCD73, each of GI-108A1 (AHF10240), GI-108A1 (AHP04167), GI-108B1, and Oleclumab was diluted in HBS-EP+ buffer (Cytiva, USA) and reversibly immobilized on Sensor Chip CM5 (Cytiva, USA) using a human antibody capture kit (Cytiva, USA). CD73 was diluted in HBS-EP+ buffer and then analyzed for association and dissociation at a flow rate of 30 μL/min for 5 minutes each.

The target of the next assay is T3, cyCD73.
T3 construct: Species told only by the prefix 'cy'
The description is as above. The procedure: as §1, §3

A further assay addresses T4, hCD73 (human, UniProt P21589 27-549, limits assumed).
T4 construct: also called human CD73; recombinant human CD73 protein
T4 sequence: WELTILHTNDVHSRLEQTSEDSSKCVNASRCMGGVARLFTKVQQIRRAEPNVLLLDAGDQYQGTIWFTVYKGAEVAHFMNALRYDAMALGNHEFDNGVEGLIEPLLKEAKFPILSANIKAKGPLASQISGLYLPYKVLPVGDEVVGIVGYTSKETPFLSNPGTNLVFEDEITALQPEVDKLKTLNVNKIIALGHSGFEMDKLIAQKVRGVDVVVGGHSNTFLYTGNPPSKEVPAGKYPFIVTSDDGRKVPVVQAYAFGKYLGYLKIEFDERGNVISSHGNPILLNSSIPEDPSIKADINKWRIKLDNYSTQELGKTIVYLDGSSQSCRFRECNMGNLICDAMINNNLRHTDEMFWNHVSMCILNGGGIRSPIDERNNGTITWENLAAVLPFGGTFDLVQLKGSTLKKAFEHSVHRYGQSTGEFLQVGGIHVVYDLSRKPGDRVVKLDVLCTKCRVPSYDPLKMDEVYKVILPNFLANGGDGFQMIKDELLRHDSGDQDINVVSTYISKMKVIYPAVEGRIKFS
The assay is described as above. The protocol:
as §1, §3

For a further assay, the target named is T5, hIL-2Rβ (human, UniProt P14784 27-239).
T5 construct: also called hIL-2RB
T5 sequence (looked up): T1 sequence (looked up) 1
The assay can be described thus: SPR, Biacore T200; biotinylated CD73 on SA chip, binder bound to CD73, hIL-2Rβ as analyte. The protocol: as §1, §2

The results in this text go back to patent publication US20260061032A1 (GI INNOVATION, published 2026).

B1: GI-108A1 (AHP04167) (Anti-CD73 sdAb-hIgG4 Fc-hIL2v3 fusion protein dimer) (Fc fusion)
chain: EVQLVESGGGLVQAGGSLRLSCVVSGRTFSNYHMGWFRQAPGKEREFVAVIGRSGGPTYYADSVKGRFTISRDNAKNTVYLQMNSLKPEDTAVYYCAGDWRNSDSPSKLKPVYDYWGQGTQVTVSSGGGGSAESKYGPPCPPCPAPEAAGGPSVFLFPPKPKDQLMISRTPEVTCVVVDVSQEDPEVQFNWYVDGVEVHNAKTKPREEQFNSTYRVVSVLTVLHQDWLNGKEYKCKVSNKGLPSSIEKTISKAKGQPREPQVYTLPPSQEEMTKNQVSLTCLVKGFYPSDIAVEWESNGQPENNYKTTPPVLDSDGSFFLYSRLTVDKSRWQEGNVFSCSVLHEALHNHYTQKSLSLSLGGGGGSGGGGSGGGGSAPTSSSTKKTQLQLEHLLLDLQMILNGINNYKNPKLTAMLTAKFYMPKKATELKHLQCLERELKPLEEVLNLAQSKNFHLRPRDLISNINVIVLELKGSETTFMCEYADETATIVEFLNRWITFCQSIISTLT
notes: Homodimer through hinge cysteines
What is called Kd is the free concentration of one partner at which half of the binding sites on the other are occupied at equilibrium, for simple one-to-one binding. Regarding B1, the Kd with hIL-2Rβγ was found to be 0.327 nM; in the assay with mCD73 it was 3.45 nM; in the assay with cyCD73, 0.0708 nM; with hCD73, 0.088 nM; with hIL-2Rβ, 2070 nM.

B2: GI-108A1 (AHF10240) (Anti-CD73 sdAb-hIgG4 Fc-hIL2v3 fusion protein dimer) (Fc fusion)
chain: EVQLVESGGGVVQTGGSLRLSCAASGRTFTHLAMGWFRQAPGKEREFVAAISNSGAGTQFADSVKGRFTISRDNAKNTVYLQMNSLKPEDTAVYYCAADWGTRDSPSKLNAVYDYWGRGTQVTVSSGGGGSAESKYGPPCPPCPAPEAAGGPSVFLFPPKPKDQLMISRTPEVTCVVVDVSQEDPEVQFNWYVDGVEVHNAKTKPREEQFNSTYRVVSVLTVLHQDWLNGKEYKCKVSNKGLPSSIEKTISKAKGQPREPQVYTLPPSQEEMTKNQVSLTCLVKGFYPSDIAVEWESNGQPENNYKTTPPVLDSDGSFFLYSRLTVDKSRWQEGNVFSCSVLHEALHNHYTQKSLSLSLGGGGGSGGGGSGGGGSAPTSSSTKKTQLQLEHLLLDLQMILNGINNYKNPKLTAMLTAKFYMPKKATELKHLQCLERELKPLEEVLNLAQSKNFHLRPRDLISNINVIVLELKGSETTFMCEYADETATIVEFLNRWITFCQSIISTLT
notes: as for B1
B2: the Kd with hIL-2Rβγ came out at 0.417 nM; in the assay with mCD73, 2.62 nM; with cyCD73 it was 0.0841 nM; in the assay with hCD73, 0.0502 nM; in the assay with hIL-2Rβ, 2500 nM.

B3: GI-108B1 (Anti-CD73 Ab-hIgG4 Fc-hIL2v3 fusion protein dimer) (antibody)
heavy: QVQLVQSGAEVKKPGSSVKVSCKFSGGSFTSYSFSWVRQAPGQGLEWMGRIIPVLTTTDYAQKFRDRVTITADESTSTAYMELSGLRSEDTAVYYCASGLKKNWYFDLWGRGALITVSSASTKGPSVFPLAPCSRSTSESTAALGCLVKDYFPEPVTVSWNSGALTSGVHTFPAVLQSSGLYSLSSVVTVPSSSLGTKTYTCNVDHKPSNTKVDKRVESKYGPPCPPCPAPEAAGGPSVFLFPPKPKDQLMISRTPEVTCVVVDVSQEDPEVQFNWYVDGVEVHNAKTKPREEQFNSTYRVVSVLTVLHQDWLNGKEYKCKVSNKGLPSSIEKTISKAKGQPREPQVYTLPPSQEEMTKNQVSLTCLVKGFYPSDIAVEWESNGQPENNYKTTPPVLDSDGSFFLYSRLTVDKSRWQEGNVFSCSVLHEALHNHYTQKSLSLSLGGGGGSGGGGSAPTSSSTKKTQLQLEHLLLDLQMILNGINNYKNPKLTAMLTAKFYMPKKATELKHLQCLERELKPLEEVLNLAQSKNFHLRPRDLISNINVIVLELKGSETTFMCEYADETATIVEFLNRWITFCQSIISTLT
light: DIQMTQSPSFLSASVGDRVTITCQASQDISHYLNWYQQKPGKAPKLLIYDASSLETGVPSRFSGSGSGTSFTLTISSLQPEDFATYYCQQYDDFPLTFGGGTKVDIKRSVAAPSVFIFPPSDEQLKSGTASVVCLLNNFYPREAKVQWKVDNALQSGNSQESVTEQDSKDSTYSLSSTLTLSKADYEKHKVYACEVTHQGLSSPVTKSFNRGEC
notes: IgG4 anti-CD73 antibody with the IL-2 variant fused to the C-terminus of each heavy chain; expressed in CHO cells, purified as a dimer
With B3, the Kd with hIL-2Rβγ came out at 0.2 nM; with cyCD73 it was 0.113 nM; with hCD73, 0.0894 nM; with hIL-2Rβ, 2290 nM. Besides, the binding result with mCD73 is reported as “no binding”.
